B1: MmOGOR (Magnetococcus marinus MC-1) (protein)
chain 1: MEKKDLIIRVAGEGGEGIISSGDFIAAACARAGLEVYTFKTFPAEIKGGYAMYQVRASSEKLYCQGDTFDVFCAFNGEAYEQNKDKIKPGTAFVYDYPGGDFEPDEIPEGVFAYPIPMSQTAKEMKSYRSKNMVALGALSELFNISENTLKEVLSDKFGKKGEEVLAFNLEAFDKGKALAKALTKADPFRVADPQEPKDVIIMAGNDAVGLGGILGGLEFFSAYPITPATEVAKYVATHLPKCGGDLVQAEDEIASIAQVLGASYAGKKSMTATSGPGLALMSEMLGMAHMSETPCLVVDVQRGGPSTGLPTKHEQSDLFLAIHGGHGDSPRIVLSVEDVKDCISMTVDGLNLAEKYQAPVIVLSDGSLAFSTQTIPRPKPEDFTIINRKTWDGQGTYKRYELTEDNISPMAAPGTPNAKHIATGLEHGETGAPNYSPANHELMHRKRFNKQNSVLDFYKNMEVEGVEGEADVGIITWGSTIGVVREAMQRLTAEGLKVKAMYPKLLWPMPVADYDAFGATCKKVIVPEVNFQGQLSHFIRAETSIKPIPYTICGGLPFTPEMIVNRVKEEIQ
chain 2: MTVEAFHKMENMKPKDYKSEVPTTWCPGCGHFGILNGVYRAMAELGIDSTKFAAISGIGCSSRMPYFVDSYKMHTLHGRAGAVATGTQVARPDLCVVVAGGDGDGFSIGGGHMPHMARKNVNMTYVLMDNGIYGLTKGQYSPTSRPEMTAYTTPYGGPENPMNPLLYMLTYGATYVAQAFAGKPKDCAELIKGAMEHEGFAYVNIFSQCPTFNKIDTVDFYRDLVEPIPEDHDTSDLGAAMELARRPGGKAPTGLLYKTSAPTLDQNLAKIRERLGGHVGYDKNKIIALAKP

What was measured:
[1] = target: 2-oxoglutarate:ferredoxin oxidoreductase from Magnetococcus marinus MC-1, αβ heterodimer (catalytic unit) (Magnetococcus marinus MC-1)
[2] = substrate: CC(C)(COP(=O)(O)OP(=O)(O)OC[C@H]1O[C@@H](n2cnc3c(N)ncnc32)[C@H](O)[C@@H]1OP(=O)(O)O)[C@@H](O)C(=O)NCCC(=O)NCCS; assay: steady-state 2-oxoglutarate oxidation assay; assay type: biochemical, Magnetococcus marinus; conditions: pH 8.5, 2-oxoglutarate oxidation direction
[3] = substrate: O=C(O)CCC(=O)C(=O)O; assay: steady-state 2-oxoglutarate oxidation assay; assay type: biochemical, Magnetococcus marinus; conditions: pH 8.5, apparent KM

KM of WT MmOGOR for MmFd1, CO2 reduction, pH 7.0 [1] | Molecule | Km [2] | kcat [2] | kcat/Km [2] | Km [3] | kcat [3] | kcat/Km [3]
1.3 μM | Magnetococcus marinus MC-1 ferredoxin 1 (natural protein) |  |  |  |  |  | 
 | B1 | 6.8 µM | 24.7 s⁻¹ | 3.6e+06 M⁻¹ s⁻¹ | 4400 µM | 30.3 s⁻¹ | 6900 M⁻¹ s⁻¹
